Test results reported in PMC12407707 (bioRxiv, 2025).

Tests used:
[1] = biological target: purified human PSA (shorter isoform), mCherry-Strep-tag II removed by thrombin (human, UniProt P55786-1 45-919); assay: cryo-EM structure
cryo-EM structure = biological target: the molecule itself; assay: cryo-EM structure

purified human PSA (shorter isoform), mCherry-Strep-tag II removed by thrombin, sequence (P55786 45-919): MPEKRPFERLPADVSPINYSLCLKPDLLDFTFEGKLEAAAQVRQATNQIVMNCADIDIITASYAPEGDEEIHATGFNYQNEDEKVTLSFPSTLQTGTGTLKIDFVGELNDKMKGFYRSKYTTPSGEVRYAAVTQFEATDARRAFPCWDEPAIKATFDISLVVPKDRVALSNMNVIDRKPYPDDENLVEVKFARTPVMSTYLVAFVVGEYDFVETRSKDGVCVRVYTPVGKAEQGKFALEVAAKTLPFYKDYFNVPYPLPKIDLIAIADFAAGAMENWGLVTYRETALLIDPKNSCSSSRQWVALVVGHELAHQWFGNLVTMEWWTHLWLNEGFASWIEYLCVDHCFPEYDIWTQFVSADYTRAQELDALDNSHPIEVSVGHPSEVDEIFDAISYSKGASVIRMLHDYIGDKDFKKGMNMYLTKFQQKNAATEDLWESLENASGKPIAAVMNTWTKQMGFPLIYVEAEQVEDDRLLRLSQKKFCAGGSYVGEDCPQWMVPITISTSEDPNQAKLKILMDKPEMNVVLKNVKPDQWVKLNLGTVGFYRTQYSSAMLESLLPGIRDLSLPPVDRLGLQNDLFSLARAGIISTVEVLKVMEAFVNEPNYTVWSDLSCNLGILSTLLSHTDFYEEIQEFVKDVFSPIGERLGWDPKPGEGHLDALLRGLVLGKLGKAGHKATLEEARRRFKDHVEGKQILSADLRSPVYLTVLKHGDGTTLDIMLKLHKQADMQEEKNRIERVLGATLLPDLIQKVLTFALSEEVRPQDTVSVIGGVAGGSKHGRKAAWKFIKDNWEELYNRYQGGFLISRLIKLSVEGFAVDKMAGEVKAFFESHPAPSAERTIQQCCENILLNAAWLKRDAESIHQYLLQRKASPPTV

binding result [1]: binds
B1: purified human SWELL1 homo-hexamer, tag removed by thrombin (cryo-EM sample) (natural protein)
chain: MIPVTELRYFADTQPAYRILKPWWDVFTDYISIVMLMIAVFGGTLQVTQDKMICLPCKWVTKDSCNDSFRGWAAPGPEPTYPNSTILPTPDTGPTGIKYDLDRHQYNYVDAVCYENRLHWFAKYFPYLVLLHTLIFLACSNFWFKFPRTSSKLEHFVSILLKCFDSPWTTRALSETVVEESDPKPAFSKMNGSMDKKSSTVSEDVEATVPMLQRTKSRIEQGIVDRSETGVLDKKEGEQAKALFEKVKKFRTHVEEGDIVYRLYMRQTIIKVIKFILIICYTVYYVHNIKFDVDCTVDIESLTGYRTYRCAHPLATLFKILASFYISLVIFYGLICMYTLWWMLRRSLKKYSFESIREESSYSDIPDVKNDFAFMLHLIDQYDPLYSKRFAVFLSEVSENKLRQLNLNNEWTLDKLRQRLTKNAQDKLELHLFMLSGIPDTVFDLVELEVLKLELIPDVTIPPSIAQLTGLKELWLYHTAAKIEAPALAFLRENLRALHIKFTDIKEIPLWIYSLKTLEELHLTGNLSAENNRYIVIDGLRELKRLKVLRLKSNLSKLPQVVTDVGVHLQKLSINNEGTKLIVLNSLKKMANLTELELIRCDLERIPHSIFSLHNLQEIDLKDNNLKTIEEIISFQHLHRLTCLKLWYNHIAYIPIQIGNLTNLERLYLNRNKIEKIPTQLFYCRKLRYLDLSHNNLTFLPADIGLLQNLQNLAITANRIETLPPELFQCRKLRALHLGNNVLQSLPSRVGELTNLTQIELRGNRLECLPVELGECPLLKRSGLVVEEDLFNTLPPEVKERLWRADKEQA
stoichiometry N (cryo-EM structure): 6
